We go through one substance from patent publication US20020090680A1.

The experiment deals with IL-9R/h16445 cytoplasmic-domain receptor chimera (human). Briefly: cell-based or functional assay.

Some results are limits rather than exact numbers.

Sequence of IL-9R/h16445 cytoplasmic-domain receptor chimera (human) (Q9HBE5 254-538, change not shown): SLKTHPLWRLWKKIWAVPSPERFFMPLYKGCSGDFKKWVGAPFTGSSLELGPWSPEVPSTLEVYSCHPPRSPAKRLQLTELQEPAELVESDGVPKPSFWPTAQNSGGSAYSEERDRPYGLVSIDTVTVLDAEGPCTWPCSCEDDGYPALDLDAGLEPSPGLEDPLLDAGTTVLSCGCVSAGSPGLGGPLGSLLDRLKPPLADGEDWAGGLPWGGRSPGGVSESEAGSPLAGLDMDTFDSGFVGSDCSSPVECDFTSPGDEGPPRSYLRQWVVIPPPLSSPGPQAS

For the substance IL-9 (ligand), the CAT expression (HRRE-CAT reporter, HepG2 cells) is above 30 fold.
